Assay results reported in US9150649B2, “Potent conjugates and hydrophilic linkers” (priority 2008, dated 2015).

Settings: mouse, in vivo, iv, 12 mg/kg
Protocol: CD1 mice were injected intravenously, by a single bolus, of 5 mg/kg conjugates (antibody-based dose; 3 mice per group). Plasma samples were collected at several time points up to 4 weeks. The plasma samples were analyzed for antibody concentration and for conjugate concentration using ELISA. For antibody ELISA, the plasma samples were added to microtiter plates containing coated, immobilized goat-anti-human IgG (H+L) antibody, washed, and detected using horseradish peroxidase-conjugated goat-anti-human IgG (Fe) antibody. For conjugate concentration, the plasma samples were added to microtiter plates containing coated, immobilized goat-anti-human IgG (H+L) antibody, washed, and detected using biotinylated anti-maytansine antibody and alkaline phosphatase-conjugated streptavidin.

B1: unconjugated antibody: unconjugated humanized C242 antibody, binds the CanAg antigen (antibody, chains of the INN, looked up, V domains shown)
VH: QVQLVQSGAEVKKPGETVKISCKASDYTFTYYGMNWVKQAPGQGLKWMGWIDTTTGEPTYAQKFQGRIAFSLETSASTAYLQIKSLKSEDTATYFCARRGPYNWYFDVWGQGTTVTVSS
VL: DIVMTQSPLSVPVTPGEPVSISCRSSKSLLHSNGNTYLYWFLQRPGQSPQLLIYRMSNLVSGVPDRFSGSGSGTAFTLRISRVEAEDVGVYYCLQHLEYPFTFGPGTKLELK
  area under the curve (AUC): 38798 µg·h/mL
